Measured values reported in US20170283834A1, “Processes for Producing A Fermentation Product Using A Fermenting Organism” (Novozymes A/S, priority 2014, published 2017).

Assays:
Type in all cases: biochemical
azo-casein = assay: Remaining activity assay of protease variants (azo-casein); settings: pH 4.5, 4° C. as reference; for Remaining activity 80° C.: 10 min at 80° C.; for Remaining activity 84° C.: 10 min at 84° C.
Procedure: Yeast clones on SC-glucose were inoculated to a well of a 96-well micro titre plate and cultivated at 28° C. for 3 days. Protease activity was measured at 65° C. using azo-casein (Megazyme) after incubating the culture supernatant in 20 mM sodium acetate buffer, pH 4.5, for 10 min at a certain temperature (80° C. or 84° C. with 4° C. as a reference) to determine the remaining activity. The clones with higher remaining activity than the parental variant were selected and the sequence was determined.
20 microL of samples were mixed with 150 microL of substrate solution (4 ml of 12.5% azo-casein in ethanol in 96 ml of 20 mM sodium acetate, pH 4.5, containing 0.01% triton-100 and 0.25 mM ZnSO4) and incubated for 4 hours or longer.
After adding 20 microL/well of 100% trichloroacetic acid (TCA) solution, the plate was centrifuge and 100 microL of supernatants were pipette out to measure A440.

zein [1] = assay: Relative activity assay of protease variants (zein micro titer plate); settings: Table 4
Method in brief: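 Yeast culture supernatants (3 days, 28 °C) incubated over 4 h or overnight on zein-agar plates (pH 4.5 acetate, 0.25 mM ZnSO4) at two temperatures. Zein turbidity read at A630; higher/lower-temperature activity ratio gives relative thermoactivity.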

zein [2] = assay: Thermostability of Protease Pfu (Relative Activity, methods of Example 2); settings: pH 4.5
Procedure: Yeast clones on SC-glucose were inoculated to a well of a 96-well micro titre plate containing YPD+Zn medium and cultivated at 28° C. for 3 days. The culture supernatants were applied to a 96-well zein micro titer plate and incubated at at least 2 temperatures (ex. 60° C. and 65° C., 70° C. and 75° C., 70° C. and 80° C.) for more than 4 hours or overnight. The turbidity of zein in the plate was measured as A630 and the relative activity (higher/lower temperatures) was determined as an indicator of thermoactivity improvement. The clones with higher relative activity than the parental variant were selected and the sequence was determined.
The thermostability of the Pyrococcus furiosus protease (Pfu S) purchased from Takara Bio Inc, (Japan) was tested using the same methods as in Example 2.

B1: JTP091: protease variant of SEQ ID NO: 3: D79L/S87P/A112P/T124V/D142L (protein, listed as Thermoascus aurantiacus)
chain: MRLVASLTALVALSVPVFPAAVNVKRASSYLEITLSQVSNTLIKAVVQNTGSDELSFVHLNFFKDPAPVKKVSVYRDGSEVQFEGILSRYKSTGLSRDAFTYLAPGESVEDVFDIASTYDLTSGGPVTIRTEGVVPYATANSTDIAGYISYSSNVLTIDVDGAAAATVSKAITPLDRRTRISSCSGSRQSALTTALRNAASLANAAADAAQSGSASKFSEYFKTTSSSTRQTVAARLRAVAREASSSSSGATTYYCLDPYGYCSPNVLAYTLPSYNIIANCDIFYTYLPPLTSTCHAQDQAVTALHEFTHAPGVYSPGTLDLAYGYQAAMGLSSSQAVMNADTYALYANAIYLGC
B1 was tested, and the “Remaining activity 80° C.” value (azo-casein) was 43% and the “Relative activity 75° C./65° C.” value (zein [1]) was 154%.

B2: JTP101: protease variant of SEQ ID NO: 3: A27K/D79L/S87P/A112P/T124V/D142L (protein, listed as Thermoascus aurantiacus)
chain: MRLVASLTALVALSVPVFPAAVNVKRASSYLEITLSQVSNTLIKAVVQNTGSDELSFVHLNFFKDPAPVKKVSVYRDGSEVQFEGILSRYKSTGLSRDAFTYLAPGESVEDVFDIASTYDLTSGGPVTIRTEGVVPYATANSTDIAGYISYSSNVLTIDVDGAAAATVSKAITPLDRRTRISSCSGSRQSALTTALRNAASLANKAADAAQSGSASKFSEYFKTTSSSTRQTVAARLRAVAREASSSSSGATTYYCLDPYGYCSPNVLAYTLPSYNIIANCDIFYTYLPPLTSTCHAQDQAVTALHEFTHAPGVYSPGTLDLAYGYQAAMGLSSSQAVMNADTYALYANAIYLGC
With B2 the “Remaining activity 80° C.” value (azo-casein) was 81%.

B3: JTP117: protease variant of SEQ ID NO: 3: D79L/Y82F/S87P/A112P/T124V/D142L (protein, listed as Thermoascus aurantiacus)
chain: MRLVASLTALVALSVPVFPAAVNVKRASSYLEITLSQVSNTLIKAVVQNTGSDELSFVHLNFFKDPAPVKKVSVYRDGSEVQFEGILSRYKSTGLSRDAFTYLAPGESVEDVFDIASTYDLTSGGPVTIRTEGVVPYATANSTDIAGYISYSSNVLTIDVDGAAAATVSKAITPLDRRTRISSCSGSRQSALTTALRNAASLANAAADAAQSGSASKFSEYFKTTSSSTRQTVAARLRAVAREASSSSSGATTYYCLDPFGYCSPNVLAYTLPSYNIIANCDIFYTYLPPLTSTCHAQDQAVTALHEFTHAPGVYSPGTLDLAYGYQAAMGLSSSQAVMNADTYALYANAIYLGC
For B3, the “Remaining activity 80° C.” value (azo-casein) was 94%.

B4: JTP099: protease variant of SEQ ID NO: 3: D79L/P81R/S87P/A112P/D142L (protein, listed as Thermoascus aurantiacus)
chain: MRLVASLTALVALSVPVFPAAVNVKRASSYLEITLSQVSNTLIKAVVQNTGSDELSFVHLNFFKDPAPVKKVSVYRDGSEVQFEGILSRYKSTGLSRDAFTYLAPGESVEDVFDIASTYDLTSGGPVTIRTEGVVPYATANSTDIAGYISYSSNVLTIDVDGAAAATVSKAITPLDRRTRISSCSGSRQSALTTALRNAASLANAAADAAQSGSASKFSEYFKTTSSSTRQTVAARLRAVAREASSSSSGATTYYCLDRYGYCSPNVLAYTLPSYNIIANCDIFYTYLPPLTSTCHAQDQATTALHEFTHAPGVYSPGTLDLAYGYQAAMGLSSSQAVMNADTYALYANAIYLGC
For B4, the “Remaining activity 84° C.” value (azo-casein) was 80%.

B5: JTP127: protease variant of SEQ ID NO: 3: D79L/S87P/A112P/T124V/A126V/D142L (protein, listed as Thermoascus aurantiacus)
chain: MRLVASLTALVALSVPVFPAAVNVKRASSYLEITLSQVSNTLIKAVVQNTGSDELSFVHLNFFKDPAPVKKVSVYRDGSEVQFEGILSRYKSTGLSRDAFTYLAPGESVEDVFDIASTYDLTSGGPVTIRTEGVVPYATANSTDIAGYISYSSNVLTIDVDGAAAATVSKAITPLDRRTRISSCSGSRQSALTTALRNAASLANAAADAAQSGSASKFSEYFKTTSSSTRQTVAARLRAVAREASSSSSGATTYYCLDPYGYCSPNVLAYTLPSYNIIANCDIFYTYLPPLTSTCHAQDQAVTVLHEFTHAPGVYSPGTLDLAYGYQAAMGLSSSQAVMNADTYALYANAIYLGC
In the case of B5, the “Remaining activity 80° C.” value (azo-casein) is reported as 53%.

B6: JTP096: protease variant of SEQ ID NO: 3: T46R/D79L/S87P/T116V/D142L (protein, listed as Thermoascus aurantiacus)
chain: MRLVASLTALVALSVPVFPAAVNVKRASSYLEITLSQVSNTLIKAVVQNTGSDELSFVHLNFFKDPAPVKKVSVYRDGSEVQFEGILSRYKSTGLSRDAFTYLAPGESVEDVFDIASTYDLTSGGPVTIRTEGVVPYATANSTDIAGYISYSSNVLTIDVDGAAAATVSKAITPLDRRTRISSCSGSRQSALTTALRNAASLANAAADAAQSGSASKFSEYFKRTSSSTRQTVAARLRAVAREASSSSSGATTYYCLDPYGYCSPNVLAYTLPSYNIIANCDIFYTYLPALTSVCHAQDQATTALHEFTHAPGVYSPGTLDLAYGYQAAMGLSSSQAVMNADTYALYANAIYLGC
With B6 the “Remaining activity 84° C.” value (azo-casein) was 67%.

B7: JTP095: protease variant of SEQ ID NO: 3: N26R/T46R/D79L/S87P/A112P/D142L (protein, listed as Thermoascus aurantiacus)
chain: MRLVASLTALVALSVPVFPAAVNVKRASSYLEITLSQVSNTLIKAVVQNTGSDELSFVHLNFFKDPAPVKKVSVYRDGSEVQFEGILSRYKSTGLSRDAFTYLAPGESVEDVFDIASTYDLTSGGPVTIRTEGVVPYATANSTDIAGYISYSSNVLTIDVDGAAAATVSKAITPLDRRTRISSCSGSRQSALTTALRNAASLARAAADAAQSGSASKFSEYFKRTSSSTRQTVAARLRAVAREASSSSSGATTYYCLDPYGYCSPNVLAYTLPSYNIIANCDIFYTYLPPLTSTCHAQDQATTALHEFTHAPGVYSPGTLDLAYGYQAAMGLSSSQAVMNADTYALYANAIYLGC
In the case of B7, the “Remaining activity 84° C.” value (azo-casein) is reported as 62%.

B8: JTP116: protease variant of SEQ ID NO: 3: D79L/Y82F/S87P/A112P/T124V/D142L (protein, listed as Thermoascus aurantiacus)
chain: MRLVASLTALVALSVPVFPAAVNVKRASSYLEITLSQVSNTLIKAVVQNTGSDELSFVHLNFFKDPAPVKKVSVYRDGSEVQFEGILSRYKSTGLSRDAFTYLAPGESVEDVFDIASTYDLTSGGPVTIRTEGVVPYATANSTDIAGYISYSSNVLTIDVDGAAAATVSKAITPLDRRTRISSCSGSRQSALTTALRNAASLANAAADAAQSGSASKFSEYFKTTSSSTRQTVAARLRAVAREASSSSSGATTYYCLDPFGYCSPNVLAYTLPSYNIIANCDIFYTYLPPLTSTCHAQDQAVTALHEFTHAPGVYSPGTLDLAYGYQAAMGLSSSQAVMNADTYALYANAIYLGC
For B8, the “Remaining activity 80° C.” value (azo-casein) was 59%.

B9: JTP092: protease variant of SEQ ID NO: 3: ΔS5/N26R/D79L/S87P/A112P/D142L (protein, listed as Thermoascus aurantiacus)
chain: MRLVASLTALVALSVPVFPAAVNVKRASSYLEITLSQVSNTLIKAVVQNTGSDELSFVHLNFFKDPAPVKKVSVYRDGSEVQFEGILSRYKSTGLSRDAFTYLAPGESVEDVFDIASTYDLTSGGPVTIRTEGVVPYATANSTDIAGYISYSSNVLTIDVDGAAAATVSKAITPLDRRTRISCSGSRQSALTTALRNAASLARAAADAAQSGSASKFSEYFKTTSSSTRQTVAARLRAVAREASSSSSGATTYYCLDPYGYCSPNVLAYTLPSYNIIANCDIFYTYLPPLTSTCHAQDQATTALHEFTHAPGVYSPGTLDLAYGYQAAMGLSSSQAVMNADTYALYANAIYLGC
With B9 the “Remaining activity 84° C.” value (azo-casein) was 60%.

B10: JTP082: protease variant of SEQ ID NO: 3: ΔS5/D79L/S87P/A112P/D142L (protein, listed as Thermoascus aurantiacus)
chain: MRLVASLTALVALSVPVFPAAVNVKRASSYLEITLSQVSNTLIKAVVQNTGSDELSFVHLNFFKDPAPVKKVSVYRDGSEVQFEGILSRYKSTGLSRDAFTYLAPGESVEDVFDIASTYDLTSGGPVTIRTEGVVPYATANSTDIAGYISYSSNVLTIDVDGAAAATVSKAITPLDRRTRISCSGSRQSALTTALRNAASLANAAADAAQSGSASKFSEYFKTTSSSTRQTVAARLRAVAREASSSSSGATTYYCLDPYGYCSPNVLAYTLPSYNIIANCDIFYTYLPPLTSTCHAQDQATTALHEFTHAPGVYSPGTLDLAYGYQAAMGLSSSQAVMNADTYALYANAIYLGC
B10 was tested, and the “Remaining activity 84° C.” value (azo-casein) was 53% and the “Relative activity 75° C./65° C.” value (zein [1]) was 129%.

B11: Pfu S: commercial Pyrococcus furiosus protease purchased from Takara Bio Inc, (Japan); SEQ ID NO: 13 (protein, listed as Pyrococcus furiosus)
chain: AELEGLDESAAQVMATYVWNLGYDGSGITIGIIDTGIDASHPDLQGKVIGWVDFVNGRSYPYDDHGHGTHVASIAAGTGAASNGKYKGMAPGAKLAGIKVLGADGSGSISTIIKGVEWAVDNKDKYGIKVINLSLGSSQSSDGTDALSQAVNAAWDAGLVVVVAAGNSGPNKYTIGSPAAASKVITVGAVDKYDVITSFSSRGPTADGRLKPEVVAPGNWIIAARASGTSMGQPINDYYTAAPGTSMATPHVAGIAALLLQAHPSWTPDKVKTALIETADIVKPDEIADIAYGAGRVNAYKAINYDNYAKLVFTGYVANKGSQTHQFVISGASFVTATLYWDNANSDLDLYLYDPNGNQVDYSYTAYYGFEKVGYYNPTDGTWTIKVVSYSGSANYQVDVVSDGSLSQPGSS
modifications: mat_peptide (1)..(412) Pyrococcus furiosus protease (Pfu)
B11 was tested, and the “thermostability (Relative Activity) 80° C./70° C.” value (zein [2]) was 110% and the “thermostability (Relative Activity) 90° C./70° C.” value (zein [2]) was 103%.
